According to article PMC11218721, “Receptor-Targeted Peptide Conjugates Based on Diphosphines Enable Preparation of ^99mTc and ^188Re Theranostic Agents for Prostate Cancer” (Journal of Nuclear Medicine, 2024):
Where two headings read alike, the source gives them in different places.

Tests used:
[1] = in vivo; parameters: species or system mice; details: male, SCID/beige, mouse, total radioactivity
Method: (§1) All animal experiments were ethically reviewed by an Animal Welfare and Ethical Review Board at either King’s College London or Barts Cancer Institute and were performed in accordance with the Animals (Scientific Procedures) Act 1986 U.K. Home Office regulations governing animal experimentation. Subcutaneous prostate cancer DU145-PSMA+ or DU145 xenografts were produced in SCID/beige mice (male, 7–12 wk old). Subcutaneous LNCaP prostate cancer xenografts were produced in athymic nude mice (Crl:NU(NCr)-Foxn1^nu, male, 6–7 wk old). SPECT/CT and biodistribution studies using ^99mTc and ^188Re radiotracers were performed once a tumor had reached an appropriate size (supplemental materials).
Additionally, groups of mice bearing non–PSMA-expressing parental DU145 tumors were also administered these ^99mTc radiotracers. For these groups, tumor uptake of [^99mTc]Tc-DP1-PSMAt decreased to 0.24 ± 0.07 %ID/g, and tumor uptake of [^99mTc]Tc-DP2-PSMAt decreased to 0.18 ± 0.07 %ID/g (Supplemental Fig. 3).

[2] = Ex vivo biodistribution in SCID/beige mice bearing DU145-PSMA+ xenograft tumors; details: male, SCID/beige, mouse, in vivo, iv, total radioactivity
Method: as §1
(§2) The biodistributions of [^99mTc]Tc-DP1-PSMAt and [^99mTc]Tc-DP2-PSMAt were assessed in male SCID/beige mice bearing DU145-PSMA+ xenograft tumors (Fig. 3). Each mouse was administered either [^99mTc]Tc-DP1-PSMAt or [^99mTc]Tc-DP2-PSMAt and euthanized at 2 h after injection (n = 5), followed by organ harvesting for ex vivo radioactivity counting.
(§3) FIGURE 3. (A) Biodistribution (2 h after injection) of SCID/beige mice bearing DU145-PSMA+ prostate cancer tumors, administered either ^99mTc or ^188Re radiotracers intravenously. To assess specificity of radiotracer uptake, additional groups of mice were also coadministered radiotracer and PMPA (Supplemental Tables 3 and 4). (B) Whole-body SPECT/CT maximum-intensity projections of SCID/beige mice bearing either DU145-PSMA+ tumors or DU145 tumors, administered either [^99mTc]Tc-DP1-PSMAt or [^99mTc]Tc-DP2-PSMAt, 2 h after injection. To inhibit uptake in DU145-PSMA+ tumors, animals were also coadministered PMPA.
(§4) To assess the specificity of each radiotracer, separate groups of animals, also bearing DU145-PSMA+ tumors, were coadministered either [^99mTc]Tc-DP1-PSMAt and PMPA or [^99mTc]Tc-DP2-PSMAt and PMPA to inhibit PSMA-mediated uptake of radiotracer (n = 5). […] For [^99mTc]Tc-DP1-PSMAt, coadministration decreased uptake to 0.91 ± 0.29 %ID/g in tumors (compared with administration of [^99mTc]Tc-DP1-PSMAt only: mean difference of 17.12 %ID/g, P = 4 × 10^−4). For [^99mTc]Tc-DP2-PSMAt, coadministration decreased uptake to 0.76 ± 0.45 %ID/g in tumors (compared with administration of [^99mTc]Tc-DP2-PSMAt only: mean difference of 28.62 %ID/g, P = 5 × 10^−4).

[3] = Ex vivo biodistribution in athymic nude mice bearing LNCaP xenografts; details: male, athymic nude (Crl:NU(NCr)-Foxn1^nu), mouse, total radioactivity
Method: as §1
With a view to developing a molecular [^188Re]Re-labeled agent for PSMA PRRT, we further characterized the biodistribution profiles of [^188Re]Re-DP1-PSMAt and [^188Re]Re-DP2-PSMAt in male athymic nude mice bearing LNCaP xenografts (Fig. 4), which recapitulate clinical metastatic prostate cancer more closely than DU145-PSMA+ xenografts. […] In mice administered [^188Re]Re-DP1-PSMAt, LNCaP tumor uptake measured 7.0 ± 2.3 %ID/g at 2 h after injection and 2.9 ± 0.8 %ID/g at 24 h after injection. For [^188Re]Re-DP2-PSMAt, LNCaP tumor uptake measured 9.8 ± 2.8 %ID/g at 2 h after injection and 7.6 ± 4.4 %ID/g at 24 h after injection.
FIGURE 4. (A–C) Biodistribution of ^188Re in athymic nude mice bearing LNCaP prostate cancer tumors, administered either [^188Re]Re-DP1-PSMAt or [^188Re]Re-DP2-PSMAt at 2 h after injection (A), at 24 h after injection (B), and at 2 h after injection (C) with coadministration of Gelofusine. (D) Additionally, biodistributions of [^99mTc]Tc-DP1-PSMAt and [^99mTc]Tc-DP2-PSMAt at 2 h after injection were measured (Supplemental Tables 5–8). GI = gastrointestinal tract.

[4] = system: PC3 cells; experiment: Radiotracer uptake in PC3 cells (non-PSMA-expressing); format: cell-based; details: 100 kBq, 1 h, 37°C; cells do not express PSMA
Method: (§5) Solutions containing radiotracer (100 kBq in 8–12 μL of phosphate-buffered saline, >95% radiochemical purity) were added to DU145-PSMA+ or LNCaP prostate cancer cells ([22]), and the cells were incubated at 37°C for 1 h. Nonspecific uptake was determined using non–PSMA-expressing cells (DU145, PC3) or by blocking PSMA-expressing cells (DU145-PSMA+, LNCaP) with 2-phosphonomethyl pentanedioic acid (PMPA). After incubation, the cells were washed and samples collected for radioactivity counting. Uptake and localization of ^99mTc radiotracers were measured over time (15, 30, 60, and 120 min) in DU145-PSMA+ or LNCaP cells (supplemental materials).
(§6) To assess the specificity of the new radiotracers for PSMA, [^99mTc]Tc-DP1-PSMAt and [^99mTc]Tc-DP2-PSMAt (100 kBq) were each incubated with DU145-PSMA+ prostate cancer cells (DU145 cells transfected to express PSMA receptor) ([22]). After 1 h of incubation, uptake of each radiotracer was quantified. […] In LNCaP cells, uptake of [^99mTc]Tc-DP1-PSMAt and [^99mTc]Tc-DP2-PSMAt measured 3.7 ± 1.2 %AR and 3.0 ± 0.8 %AR, respectively, whereas uptake of both radiotracers in PC3 cells measured less than 0.3 %AR.
(§7) FIGURE 2. (A) Uptake of radiotracers in PSMA-positive and PSMA-negative prostate cancer cells. (B) Time course uptake and localization of ^99mTc radiotracers in DU145-PSMA cells and LNCaP cells. Data are presented as mean ± SD; n = 3–4 biologic repeats performed in triplicate.

[5] = system: parental DU145 cells that do not express PSMA; experiment: Radiotracer uptake in parental DU145 cells (non-PSMA-expressing); format: cell-based; details: 100 kBq, 1 h, 37°C
Method: as §5, §6, §7

[6] = system: DU145-PSMA+ xenograft tumors; experiment: Ex vivo biodistribution in SCID/beige mice bearing DU145-PSMA+ xenograft tumors; details: for effect of PMPA coadministration on spleen uptake (in words) / effect of PMPA coadministration on tumor uptake (in words): SCID/beige mice bearing DU145-PSMA+ tumors, 2 h after injection; for radioactivity concentration in DU145-PSMA+ tumors: male, SCID/beige, mouse, in vivo, iv, 2 h
Method: as §1, §2, §3, §4

[7] = system: DU145-PSMA+ prostate cancer cells (DU145 cells transfected to express PSMA receptor); experiment: Radiotracer uptake in DU145-PSMA+ prostate cancer cells; format: cell-based; details: 37°C; for uptake in DU145-PSMA+ cells: 100 kBq radiotracer, 1 h incubation, percentage added radioactivity, mean ± SD, n = 3–4 biologic repeats in triplicate; for uptake in DU145-PSMA+ cells with PMPA block: coincubated with PSMA inhibitor PMPA, 1 h
Method: as §5, §6, §7

[8] = system: LNCaP prostate cancer cells, which natively express PSMA; experiment: Radiotracer uptake in LNCaP prostate cancer cells; format: cell-based; details: 37°C; for uptake in LNCaP cells: 100 kBq radiotracer, 1 h incubation, percentage added radioactivity, mean ± SD, n = 3–4 biologic repeats in triplicate; for uptake in LNCaP cells with PMPA block: blocked with PMPA, 1 h
Method: as §5, §6, §7

[9] = SCID/beige mice bearing DU145-PSMA+ tumors, 2 h after injection, read-out: radioactivity concentration in kidneys
[10] = SCID/beige mice, 2 h after injection, PMPA coadministered, n = 5, read-out: DU145-PSMA+ tumor uptake with coadministration of PMPA
[11] = SCID/beige mice, 2 h after injection, PMPA coadministered, read-out: radioactivity concentration in spleen with PMPA
[12] = radioactivity concentration in DU145-PSMA+ tumors
[13] = radioactivity concentration in spleen
[14] = athymic nude mice bearing LNCaP tumors, 2 h after injection, Gelofusine coadministered, read-out: kidney retention with coadministration of Gelofusine
[15] = athymic nude mice bearing LNCaP tumors, 2 h after injection, read-out: concentration in kidneys at 2 h
[16] = athymic nude mice bearing LNCaP tumors, 24 h after injection, read-out: concentration in kidneys at 24 h

| SMILES | tissue uptake at 2 h [1] | tissue uptake at 2 h [2, 9] | tissue uptake at 2 h [2, 10] | tissue uptake at 2 h [2, 11] | tissue uptake at 2 h [2, 12] | tissue uptake at 2 h [2, 13] | tissue uptake at 2 h [3] | tissue uptake at 24 h [3] | tissue uptake at 2 h [3, 14] | tissue uptake at 2 h [3, 15] | tissue uptake at 24 h [3, 16] | uptake in PC3 cells (in words) [4] | uptake in parental DU145 cells [5] | effect of PMPA coadministration on spleen uptake (in words) [6] | effect of PMPA coadministration on tumor uptake (in words) [6] | radioactivity concentration in DU145-PSMA+ tumors [6] | uptake in DU145-PSMA+ cells [7] | uptake in DU145-PSMA+ cells with PMPA block [7] | uptake in LNCaP cells [8] | uptake in LNCaP cells with PMPA block [8] | also measured |
| --- | --- | --- | --- | --- | --- | --- | --- | --- | --- | --- | --- | --- | --- | --- | --- | --- | --- | --- | --- | --- | --- |
| O=C(O)CC[C@H](NC(=O)N[C@@H](CCCCNC(=O)CCOCCOCCOCCOCCNC(=O)/C(=C(\C(=O)O)P(c1ccccc1)c1ccccc1)P(c1ccccc1)c1ccccc1)C(=O)O)C(=O)O [[^99mTc]Tc-DP1-PSMAt, metal not drawn] | 0.24 ± 0.07 %ID/g | 116 ± 27.3 %ID/g | 0.91 ± 0.29 %ID/g | 0.2 ± 0.06 %ID/g | 18 ± 3.5 %ID/g | 12 ± 5.3 %ID/g |  |  |  |  |  |  |  |  |  |  |  |  |  |  | tissue uptake at 2 h ([2]; SCID/beige mice, 2 h after injection, PMPA coadministered, read-out: radioactivity concentration in kidneys with PMPA): 38 ± 2.9 %ID/g |
| Cc1ccc(P(/C(C(=O)O)=C(/C(=O)NCCOCCOCCOCCOCCC(=O)NCCCC[C@H](NC(=O)N[C@@H](CCC(=O)O)C(=O)O)C(=O)O)P(c2ccc(C)cc2)c2ccc(C)cc2)c2ccc(C)cc2)cc1 [[^99mTc]Tc-DP2-PSMAt, metal not drawn] | 0.18 ± 0.07 %ID/g | 183 ± 23.8 %ID/g | 0.76 ± 0.45 %ID/g | 0.3 ± 0.18 %ID/g | 29.4 ± 6.3 %ID/g | 7.7 ± 3.4 %ID/g |  |  |  |  |  |  |  |  |  |  |  |  |  |  |  |
| O=C(O)CC[C@H](NC(=O)N[C@@H](CCCCNC(=O)CCOCCOCCOCCOCCNC(=O)/C(=C(\C(=O)O)P(c1ccccc1)c1ccccc1)P(c1ccccc1)c1ccccc1)C(=O)O)C(=O)O [[^188Re]Re-DP1-PSMAt, metal not drawn] |  |  |  |  |  |  | 7 ± 2.3 %ID/g | 2.9 ± 0.8 %ID/g | 109 ± 13.3 %ID/g | 137 ± 34.6 %ID/g | 29.4 ± 4.9 %ID/g |  |  |  |  |  |  |  |  |  |  |
| O=C(O)CC[C@H](NC(=O)N[C@@H](CCCCNC(=O)CCOCCOCCOCCOCCNC(=O)/C(=C(\C(=O)O)P(c1ccccc1)c1ccccc1)P(c1ccccc1)c1ccccc1)C(=O)O)C(=O)O [[^188Re]Re-DP1-PSMAt] [metal not drawn] |  |  |  |  |  |  |  |  |  |  |  | negligible uptake | negligible uptake | significantly inhibited uptake | significantly inhibited uptake | 27.7 ± 6.4 %ID/g | 13.5 ± 2.7 %AR | could be blocked with PMPA | 2.8 ± 1.6 %AR | could be blocked with PMPA |  |
| Cc1ccc(P(/C(C(=O)O)=C(/C(=O)NCCOCCOCCOCCOCCC(=O)NCCCC[C@H](NC(=O)N[C@@H](CCC(=O)O)C(=O)O)C(=O)O)P(c2ccc(C)cc2)c2ccc(C)cc2)c2ccc(C)cc2)cc1 [[^188Re]Re-DP2-PSMAt, metal not drawn] |  |  |  |  |  |  | 9.8 ± 2.8 %ID/g | 7.6 ± 4.4 %ID/g | 128 ± 17.7 %ID/g | 163 ± 31.8 %ID/g | 37 ± 12.2 %ID/g |  |  |  |  |  |  |  |  |  |  |
| Cc1ccc(P(/C(C(=O)O)=C(/C(=O)NCCOCCOCCOCCOCCC(=O)NCCCC[C@H](NC(=O)N[C@@H](CCC(=O)O)C(=O)O)C(=O)O)P(c2ccc(C)cc2)c2ccc(C)cc2)c2ccc(C)cc2)cc1 [[^188Re]Re-DP2-PSMAt] [metal not drawn] |  |  |  |  |  |  |  |  |  |  |  | negligible uptake | negligible uptake | significantly inhibited uptake | significantly inhibited uptake | 19.2 ± 8.6 %ID/g | 8.3 ±0.7 %AR | could be blocked with PMPA | 2.6 ± 1.6 %AR | could be blocked with PMPA |  |
